The target of the assay is 30/30 nucleosomes labeled with Cy3 on H4 A15C, P62799. Put plainly: other fluorescence titration.

We go through 1 molecule from paper PMC4355161.

B1: SNF2h ΔHSS (domain or fragment)
chain: MSSAAEPPPPPPPESAPSKPAASIASGGSNSSNKGGPEGVAAQAVASAASAGPADAEMEEIFDDASPGKQKEIQEPDPTYEEKMQTDRANRFEYLLKQTELFAHFIQPAAQKTPTSPLKMKPGRPRIKKDEKQNLLSVGDYRHRRTEQEEDEELLTESSKATNVCTRFEDSPSYVKWGKLRDYQVRGLNWLISLYENGINGILADEMGLGKTLQTISLLGYMKHYRNIPGPHMVLVPKSTLHNWMSEFKRWVPTLRSVCLIGDKEQRAAFVRDVLLPGEWDVCVTSYEMLIKEKSVFKKFNWRYLVIDEAHRIKNEKSKLSEIVREFKTTNRLLLTGTPLQNNLHELWSLLNFLLPDVFNSADDFDSWFDTNNCLGDQKLVERLHMVLRPFLLRRIKADVEKSLPPKKEVKIYVGLSKMQREWYTRILMKDIDILNSAGKMDKMRLLNILMQLRKCCNHPYLFDGAEPGPPYTTDMHLVTNSGKMVVLDKLLPKLKEQGSRVLIFSQMTRVLDILEDYCMWRNYEYCRLDGQTPHDERQDSINAYNEPNSTKFVFMLSTRAGGLGINLATADVVILYDSDWNPQVDLQAMDRAHRIGQTKTVRVFRFITDNTVEERIVERAEMKLRLDSIVIQQGRLVDQNLNKIGKDEMLQMIRHGATHVFASKESEITDEDIDGILERGAKKTAEMNEKLSKMGESSLRNFTMDTESSVYNFEGEDYREKQKIAFTE
modifications: not checked
For the molecule B1, the fold decrease in affinity against wild type SNF2h was 56 fold and the fold decrease in binding against wild type SNF2h stood at 22 fold.
